Assay results published in paper PMC12443467, “A phosphoserine phosphatase variant present in the brain of Alzheimer's disease patients favors nuclear mistargeting” (The Febs Journal, 2025).

Assays:
[1] = molecular target: T1, wtPSP (human phosphoserine phosphatase, PSP) (Homo sapiens, UniProt P78330); assay: SAT-coupled continuous assay of L-Ser production (DTNB, […] nm type read-out); assay type: biochemical; conditions: 3 mM MgCl2, 50 mM Hepes, 100 mM KCl, pH 7, 37 °C; 12 nM enzyme
T1 construct: gene PSPH; recombinant human PSP with His-tag, plasmid pET28_hPSP, E. coli BL21(DE3), Talon purification, homodimer (54 kDa expected; 53 kDa by SEC)
T1 sequence (P78330 1-225): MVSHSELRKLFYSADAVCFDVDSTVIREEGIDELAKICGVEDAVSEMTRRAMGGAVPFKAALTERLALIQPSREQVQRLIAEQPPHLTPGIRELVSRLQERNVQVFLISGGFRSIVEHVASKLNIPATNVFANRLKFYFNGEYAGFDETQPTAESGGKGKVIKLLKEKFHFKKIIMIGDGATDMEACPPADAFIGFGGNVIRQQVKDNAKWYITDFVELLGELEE

[2] = molecular target: T2, wtPSP (human phosphoserine phosphatase, PSP) (Homo sapiens, UniProt P78330, D32G/R27S); assay: PNP-coupled phosphate release assay; assay type: biochemical
T2 construct: gene PSPH; recombinant human PSP with His-tag, plasmid pET28_hPSP, E. coli BL21(DE3), Talon purification, homodimer (54 kDa expected; 53 kDa by SEC)
T2 sequence (P78330 1-225 R27S/D32G): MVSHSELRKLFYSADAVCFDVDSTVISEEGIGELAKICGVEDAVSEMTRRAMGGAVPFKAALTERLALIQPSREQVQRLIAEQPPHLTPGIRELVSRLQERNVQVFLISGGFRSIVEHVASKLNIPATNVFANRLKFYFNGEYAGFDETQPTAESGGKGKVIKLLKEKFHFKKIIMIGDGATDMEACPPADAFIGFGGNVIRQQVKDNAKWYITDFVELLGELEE
Description: (§1) PNP-coupled phosphate release assay on wtPSP (human phosphoserine phosphatase, PSP)

[3] = molecular target: T1, wtPSP (human phosphoserine phosphatase, PSP); assay: PNP-coupled phosphate release assay; assay type: biochemical
Description: as §1

[4] = molecular target: T3, wtPSP (human phosphoserine phosphatase, PSP) (Homo sapiens, UniProt P78330, R27S); assay: PNP-coupled phosphate release assay; assay type: biochemical
T3 construct: gene PSPH; recombinant human PSP with His-tag, plasmid pET28_hPSP, E. coli BL21(DE3), Talon purification, homodimer (54 kDa expected; 53 kDa by SEC)
T3 sequence (P78330 1-225 R27S): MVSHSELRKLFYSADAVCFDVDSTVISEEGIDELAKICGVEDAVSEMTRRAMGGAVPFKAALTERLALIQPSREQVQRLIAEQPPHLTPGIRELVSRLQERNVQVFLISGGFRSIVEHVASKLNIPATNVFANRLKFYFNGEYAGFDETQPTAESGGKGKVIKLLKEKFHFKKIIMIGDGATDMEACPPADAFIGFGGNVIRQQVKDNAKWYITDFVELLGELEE
Description: as §1

[5] = molecular target: T4, wtPSP (human phosphoserine phosphatase, PSP) (Homo sapiens, UniProt P78330, D32G); assay: PNP-coupled phosphate release assay; assay type: biochemical
T4 construct: gene PSPH; recombinant human PSP with His-tag, plasmid pET28_hPSP, E. coli BL21(DE3), Talon purification, homodimer (54 kDa expected; 53 kDa by SEC)
T4 sequence (P78330 1-225 D32G): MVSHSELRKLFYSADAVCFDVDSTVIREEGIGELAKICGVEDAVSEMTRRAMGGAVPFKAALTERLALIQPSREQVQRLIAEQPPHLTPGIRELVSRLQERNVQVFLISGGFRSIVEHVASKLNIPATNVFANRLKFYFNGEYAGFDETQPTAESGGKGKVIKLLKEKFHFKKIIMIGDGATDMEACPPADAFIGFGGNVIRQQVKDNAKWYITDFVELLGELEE
Description: as §1

[6] = substrate: N[C@@H](COP(=O)(O)O)C(=O)O; assay: SAT-coupled continuous assay of L-Ser production; assay type: biochemical, Homo sapiens; conditions: 3 mM MgCl2, 50 mM Hepes, 100 mM KCl, pH 7, 37 °C
Description: SAT-coupled continuous assay of L-Ser production on wtPSP (human phosphoserine phosphatase, PSP)

Molecule: N[C@@H](COP(=O)(O)O)C(=O)O [3-PS]
- Km [1]: 42 ± 12 µM

Molecule: N[C@@H](CO)C(=O)O [L-Ser]
- IC50 [2]: 523 ± 74 µM
- IC50 [3]: 273 ± 31 µM
- IC50 [4]: 171 ± 15 µM
- IC50 [5]: 746 ± 26 µM

B1: wtPSP (human phosphoserine phosphatase, PSP) (Homo sapiens; R27S) (protein)
chain: MVSHSELRKLFYSADAVCFDVDSTVISEEGIDELAKICGVEDAVSEMTRRAMGGAVPFKAALTERLALIQPSREQVQRLIAEQPPHLTPGIRELVSRLQERNVQVFLISGGFRSIVEHVASKLNIPATNVFANRLKFYFNGEYAGFDETQPTAESGGKGKVIKLLKEKFHFKKIIMIGDGATDMEACPPADAFIGFGGNVIRQQVKDNAKWYITDFVELLGELEE
notes: recombinant human PSP with His-tag, plasmid pET28_hPSP, E. coli BL21(DE3), Talon purification, homodimer (54 kDa expected; 53 kDa by SEC)
- Km ([6]; 12 nM enzyme): 50 ± 3 µM
- kcat ([6]; 12 nM enzyme): 39 ± 1 s⁻¹
- kcat/Km ([6]; 12 nM enzyme): 780000 M⁻¹ s⁻¹

B2: wtPSP (human phosphoserine phosphatase, PSP) (Homo sapiens; D32G/R27S) (protein)
chain: MVSHSELRKLFYSADAVCFDVDSTVISEEGIGELAKICGVEDAVSEMTRRAMGGAVPFKAALTERLALIQPSREQVQRLIAEQPPHLTPGIRELVSRLQERNVQVFLISGGFRSIVEHVASKLNIPATNVFANRLKFYFNGEYAGFDETQPTAESGGKGKVIKLLKEKFHFKKIIMIGDGATDMEACPPADAFIGFGGNVIRQQVKDNAKWYITDFVELLGELEE
notes: as for B1
- Km ([6]; 180 nM enzyme): 75 ± 12 µM
- kcat ([6]; 180 nM enzyme): 2.2 ± 0.1 s⁻¹
- kcat/Km ([6]; 180 nM enzyme): 29300 M⁻¹ s⁻¹

B3: wtPSP (human phosphoserine phosphatase, PSP) (Homo sapiens; D32G) (protein)
chain: MVSHSELRKLFYSADAVCFDVDSTVIREEGIGELAKICGVEDAVSEMTRRAMGGAVPFKAALTERLALIQPSREQVQRLIAEQPPHLTPGIRELVSRLQERNVQVFLISGGFRSIVEHVASKLNIPATNVFANRLKFYFNGEYAGFDETQPTAESGGKGKVIKLLKEKFHFKKIIMIGDGATDMEACPPADAFIGFGGNVIRQQVKDNAKWYITDFVELLGELEE
notes: as for B1
- Km ([6]; 180 nM enzyme): 53 ± 5 µM
- kcat ([6]; 180 nM enzyme): 2.3 ± 0.1 s⁻¹
- kcat/Km ([6]; 180 nM enzyme): 43400 M⁻¹ s⁻¹
